The source of these data is publication PMC11742915 (Nature Communications, 2025).

Assay [1] concerns the target IFNλR1 (Homo sapiens) (UniProt Q8IU57). As to conditions: cited from earlier work.
Assay [2] addresses T1, IFNλ4 (human, UniProt K9M1U5-1 22-179).
T1 chain: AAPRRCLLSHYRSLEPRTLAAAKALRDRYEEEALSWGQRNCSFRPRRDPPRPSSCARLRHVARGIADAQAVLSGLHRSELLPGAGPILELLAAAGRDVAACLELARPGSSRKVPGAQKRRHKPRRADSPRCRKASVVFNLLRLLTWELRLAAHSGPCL
As to the kind of experiment: MST.

Assay [3] has as its target T2, IFNλ3 (UniProt Q8IZI9 34-196).
T2 chain: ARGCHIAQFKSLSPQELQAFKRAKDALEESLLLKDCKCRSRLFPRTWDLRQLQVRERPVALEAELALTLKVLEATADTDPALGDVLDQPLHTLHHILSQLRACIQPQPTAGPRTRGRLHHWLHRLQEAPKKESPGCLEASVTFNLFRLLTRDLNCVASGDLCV
Description: MST.

Assay [4] addresses T3, IFNλR1 (UniProt Q8IU57 21-226, biotin (in SPR, MST and yeast staining); fluorescent dye NanoTemper NT-L020 (in MST)). As to the kind of experiment: cell-based or functional assay.
In assay [5] the target is T3, IFNλR1. As to the kind of experiment: SPR; Biacore T200, 22 °C, equilibrium method; ~850 RU biotinylated IFNλR1 captured on a Biotin CAPture chip, IFNλ4 as analyte, nine points; 10 mM MES pH 5.6, 500 mM NaCl, 10% glycerol, 0.05% Tween20; 1:1 binding model. As to conditions: both partners purified. For orientation: SPR reads the build-up and loss of mass on a sensor chip optically.

A word on the Kd: it is the equilibrium constant for the complex coming apart. Regarding IFNλ3 (from UniProt Q8IZI9), the Kd in assay [1] is 850 nM.

B1: IFNλR1 (receptor)
chain: RPRLAPPQNVTLLSQNFSVYLTWLPGLGNPQDVTYFVAYQSSPTRRRWREVEECAGTKELLCSMMCLKKQDLYNKFKGRVRTVSPSSKSPWVESEYLDYLFEVEPAPPVLVLTQTEEILSANATYQLPPCMPPLDLKYEVAFWKEGAGNKTLFPVTPHGQPVQITLQPAASEHHCLSARTIYTFSVPKYSKFSKPTCFLLEVPEAN
modifications: biotin (in SPR, MST and yeast staining); fluorescent dye NanoTemper NT-L020 (in MST)
As to B1, the values for the Kd in assay [2] and in assay [3] were 396 nM and 1580 nM, respectively.

B2: IFNλ4 (ligand, human, UniProt K9M1U5-1 22-179, looked up)
chain: AAPRRCLLSHYRSLEPRTLAAAKALRDRYEEEALSWGQRNCSFRPRRDPPRPSSCARLRHVARGIADAQAVLSGLHRSELLPGAGPILELLAAAGRDVAACLELARPGSSRKVPGAQKRRHKPRRADSPRCRKASVVFNLLRLLTWELRLAAHSGPCL
notes: codon-optimised gene; also called interferon lambda 4; source: insect Hi5 cells (baculovirus), secreted as sfGFP-10RB-IFNλ4, cleaved with 3C protease, purified (S75 Superdex)
For B2, the “pSTAT1 signaling in Hap1 cells, EC50 relative to IFNλ3” value in assay [4] turned out to be 20 fold. The molecule also registered a dissociation constant (Kd) in assay [5] of 191 nM.
